Data on ten compounds can be found in patent US20240368354A1, “STEROID ACID-BASED HYDROGELS” (priority 2021, published 2024).

Where a SMILES comes first, the peptide text is derived from it. Bridges are numbered along the chain shown (N, C = ends). Roman numbers before positions name the chains, in order. Where no end group is shown, it is not given here. The star is where a group is joined. Chenodeoxycholyl = C[C@H](CCC(=O)*)[C@H]1CC[C@H]2[C@@H]3[C@H](O)C[C@@H]4C[C@H](O)CC[C@]4(C)[C@H]3CC[C@]12C; Cholyl = C[C@H](CCC(=O)*)[C@H]1CC[C@H]2[C@@H]3[C@H](O)C[C@@H]4C[C@H](O)CC[C@]4(C)[C@H]3C[C@H](O)[C@]12C

Series [1] deals with JIMT1 cells (breast cancer cell line). The experiment in a line: Cell cytotoxicity assay (PrestoBlue). Type of series: cell-based. The settings on record: for toxicity of dimer hydrogels compared with monomers: cells treated three days, PrestoBlue, dimers versus monomers. As for the experimental part: 5000 JIMT1 cells (breast cancer cell line) per well (96-well plate) were plated. After one day, cells were treated with the different steroid acid-peptide conjugates or hydrogels for three days. Cell survival was determined by PrestoBlue™ following the manufacturer's protocol.
Hydrogels are commonly used for drug delivery and in vivo applications, and therefore assessing their safety profiles is highly pertinent. Cytotoxicity of hydrogels was evaluated via a cytotoxicity assay by incubating cells with hydrogels formed by monomers or steroid acid-peptide conjugates, as described in Example 1.

Series [2] can be described thus: Hydrogel formation of steroid acid-peptide monomer conjugates upon resuspension in solvent. It is filed as physicochemical. Conditions: for hydrogel formation: 6.67 mg/ml, cell medium (complete DMEM with human cells), 2 hours of incubation. As for the experimental part: Specific hydrogel formation was conducted by resuspending the powder of each steroid acid-peptide monomer or dimer conjugate in phosphate buffered saline (PBS) 1X (pH 7.4), pure water, complete cell medium (DMEM), DMSO, or alcohol:water mixtuLes (e.g., methanol:water (40:60)) at room temperature or 37° C. at a concentration between 6-30 mg/mL.
Hydrogel formation was evaluated upon dissolution of the different peptide or steroid acid-peptide conjugates described in FIG. 1 in different solvents. […] Hydrogel structure (soft vs. hard) and color/clarity (translucent vs. opaque) varied among the different conditions. […] At concentrations lower than 10 mg/mL, all steroid acid-hnRNPA1 NLS conjugates tested formed liquid droplets in PBS at room temperature. Monomers of GWG-SV40NLS conjugated to steroid acids were also shown to form hydrogels (data not shown).

The mark [3] stands for this setting: monomers, room temperature and 37° C.

Take `CSCC[C@H](NC(=O)[C@@H]1CCCN1C(=O)CNC(=O)[C@H](Cc1ccccc1)NC(=O)[C@H](CC(N)=O)NC(=O)[C@H](CO)NC(=O)[C@H](CS)NC(=O)CC[C@@H](C)[C@H]1CC[C@H]2[C@@H]3[C@H](O)C[C@@H]4C[C@H](O)CC[C@]4(C)[C@H]3CC[C@]12C)C(=O)N[C@@H](CCCCN)C(=O)NCC(=O)NCC(=O)N[C@@H](CC(N)=O)C(=O)N[C@@H](Cc1ccccc1)C(=O)NCC(=O)NCC(=O)N[C@@H](CCCNC(=N)N)C(=O)N[C@@H](CO)C(=O)N[C@@H](CO)C(=O)NCC(=O)N1CCC[C@H]1C(=O)N[C@@H](Cc1ccc(O)cc1)C(N)=O` [CDCA-hnRNPA1 M9 NLS] (Chenodeoxycholyl-CSNFGPMKGGNFGGRSSGPY-NH2): the “concentrations at which viability of cells was reduced” value in series [1] (JIMT1 cells, three days treatment, hydrogels formed by monomers) is reported as “higher than 10 μg/mL”. As to `CSCC[C@H](NC(=O)[C@@H]1CCCN1C(=O)CNC(=O)[C@H](Cc1ccccc1)NC(=O)[C@H](CC(N)=O)NC(=O)[C@H](CO)NC(=O)[C@H](CSSC[C@H](NC(=O)CC[C@@H](C)[C@H]1CC[C@H]2[C@@H]3[C@H](O)C[C@@H]4C[C@H](O)CC[C@]4(C)[C@H]3CC[C@]12C)C(=O)N[C@@H](CO)C(=O)N[C@@H](CC(N)=O)C(=O)N[C@@H](Cc1ccccc1)C(=O)NCC(=O)N1CCC[C@H]1C(=O)N[C@@H](CCSC)C(=O)N[C@@H](CCCCN)C(=O)NCC(=O)NCC(=O)N[C@@H](CC(N)=O)C(=O)N[C@@H](Cc1ccccc1)C(=O)NCC(=O)NCC(=O)N[C@@H](CCCNC(=N)N)C(=O)N[C@@H](CO)C(=O)N[C@@H](CO)C(=O)NCC(=O)N1CCC[C@H]1C(=O)N[C@@H](Cc1ccc(O)cc1)C(N)=O)NC(=O)CC[C@@H](C)[C@H]1CC[C@H]2[C@@H]3[C@H](O)C[C@@H]4C[C@H](O)CC[C@]4(C)[C@H]3CC[C@]12C)C(=O)N[C@@H](CCCCN)C(=O)NCC(=O)NCC(=O)N[C@@H](CC(N)=O)C(=O)N[C@@H](Cc1ccccc1)C(=O)NCC(=O)NCC(=O)N[C@@H](CCCNC(=N)N)C(=O)N[C@@H](CO)C(=O)N[C@@H](CO)C(=O)NCC(=O)N1CCC[C@H]1C(=O)N[C@@H](Cc1ccc(O)cc1)C(N)=O` [Dimerized CDCA-hnRNPA1 M9 NLS] (I: Chenodeoxycholyl-CSNFGPMKGGNFGGRSSGPY-NH2 / II: Chenodeoxycholyl-CSNFGPMKGGNFGGRSSGPY-NH2; disulfide I:1-II:1), the cell viability entry in series [1] (JIMT1 cells, three days treatment, all concentrations tested up to 100 μg/mL) is on record as “Viability was maintained”. For `CC[C@H](C)[C@H](NC(=O)CNC(=O)[C@H](CSSC[C@H](NC(=O)CC[C@@H](C)[C@H]1CC[C@H]2[C@@H]3[C@H](O)C[C@@H]4C[C@H](O)CC[C@]4(C)[C@H]3C[C@H](O)[C@]12C)C(=O)NCC(=O)N[C@H](C(=O)NCC(=O)N[C@@H](C)C(=O)N[C@H](C(=O)N[C@@H](CC(C)C)C(=O)N[C@@H](CCCCN)C(=O)N[C@H](C(=O)N[C@@H](CC(C)C)C(=O)N[C@H](C(=O)N[C@H](C(=O)NCC(=O)N[C@@H](CC(C)C)C(=O)N1CCC[C@H]1C(=O)N[C@@H](C)C(=O)N[C@@H](CC(C)C)C(=O)N[C@H](C(=O)N[C@@H](CO)C(=O)N[C@@H](Cc1c[nH]c2ccccc12)C(=O)N[C@H](C(=O)N[C@@H](CCCCN)C(=O)N[C@@H](CCCNC(=N)N)C(=O)N[C@@H](CCCCN)C(=O)N[C@@H](CCCNC(=N)N)C(=O)N[C@@H](CCC(N)=O)C(=O)N[C@@H](CCC(N)=O)C(N)=O)[C@@H](C)CC)[C@@H](C)CC)[C@@H](C)O)[C@@H](C)O)C(C)C)C(C)C)[C@@H](C)CC)NC(=O)CC[C@@H](C)[C@H]1CC[C@H]2[C@@H]3[C@H](O)C[C@@H]4C[C@H](O)CC[C@]4(C)[C@H]3C[C@H](O)[C@]12C)C(=O)NCC(=O)N[C@@H](C)C(=O)N[C@H](C(=O)N[C@@H](CC(C)C)C(=O)N[C@@H](CCCCN)C(=O)N[C@H](C(=O)N[C@@H](CC(C)C)C(=O)N[C@H](C(=O)N[C@H](C(=O)NCC(=O)N[C@@H](CC(C)C)C(=O)N1CCC[C@H]1C(=O)N[C@@H](C)C(=O)N[C@@H](CC(C)C)C(=O)N[C@H](C(=O)N[C@@H](CO)C(=O)N[C@@H](Cc1c[nH]c2ccccc12)C(=O)N[C@H](C(=O)N[C@@H](CCCCN)C(=O)N[C@@H](CCCNC(=N)N)C(=O)N[C@@H](CCCCN)C(=O)N[C@@H](CCCNC(=N)N)C(=O)N[C@@H](CCC(N)=O)C(=O)N[C@@H](CCC(N)=O)C(N)=O)[C@@H](C)CC)[C@@H](C)CC)[C@@H](C)O)[C@@H](C)O)C(C)C)C(C)C` [dimerized CA-Melittin], in series [1], the “toxicity of dimer hydrogels compared with monomers” value is “significantly less toxic”. `CSCC[C@H](NC(=O)[C@H](CSSC[C@H](NC(=O)CC[C@@H](C)[C@H]1CC[C@H]2[C@@H]3[C@H](O)C[C@@H]4C[C@H](O)CC[C@]4(C)[C@H]3C[C@H](O)[C@]12C)C(=O)N[C@@H](CCSC)C(=O)NCC(=O)N[C@@H](CCCNC(=N)N)C(=O)N[C@H](C(=O)N[C@@H](CCCNC(=N)N)C(=O)N[C@H](C(=O)N[C@@H](CCCCN)C(=O)N[C@H](C(=O)N[C@H](C(=O)N[C@@H](CCCCN)C(=O)N[C@@H](CCCCN)C(=O)N[C@@H](C)C(=O)N[C@@H](C)C(=O)NCC(=O)NCC(N)=O)C(C)C)[C@@H](C)O)[C@@H](C)O)C(C)C)NC(=O)CC[C@@H](C)[C@H]1CC[C@H]2[C@@H]3[C@H](O)C[C@@H]4C[C@H](O)CC[C@]4(C)[C@H]3C[C@H](O)[C@]12C)C(=O)NCC(=O)N[C@@H](CCCNC(=N)N)C(=O)N[C@H](C(=O)N[C@@H](CCCNC(=N)N)C(=O)N[C@H](C(=O)N[C@@H](CCCCN)C(=O)N[C@H](C(=O)N[C@H](C(=O)N[C@@H](CCCCN)C(=O)N[C@@H](CCCCN)C(=O)N[C@@H](C)C(=O)N[C@@H](C)C(=O)NCC(=O)NCC(N)=O)C(C)C)[C@@H](C)O)[C@@H](C)O)C(C)C` [dimerized CA-NLS1 RPS17] (I: Cholyl-CMGRVRTKTVKKAAGG-NH2 / II: Cholyl-CMGRVRTKTVKKAAGG-NH2; disulfide I:1-II:1): in series [1], the “toxicity of dimer hydrogels compared with monomers” value is reported as “significantly less toxic”. “CA-Melittin: cholic acid conjugated to the peptide melittin (SEQ ID NO: 16)”: the “hydrogel formation in monomer form” value in series [2] is on record as “not able to form a hydrogel”. As for “CA-NLS1 RPS17: cholic acid conjugated to NLS1 RPS17 peptide (SEQ ID NO: 9) (MGRVRTKTVKKAAGG; also: cholic acid conjugate, site not given here)”, in series [2], the “hydrogel formation in monomer form” value is reported as “not observed to form a hydrogel”.

Turning to “GCDCA-hnRNPA1 NLS: glycochenodeoxycholic acid (GCDCA) conjugated to hnRNPA1 M9 NLS peptide (SEQ ID NO: 4) (SNFGPMKGGNFGGRSSGPY; also: glycochenodeoxycholic acid (GCDCA) conjugate, site not given here)”, the “time after which hydrogel formation was induced” value in series [2] (monomer, final concentration 6.67 mg/mL, complete DMEM containing human cells, room temperature and 37° C.) is listed as 30 min. For the same compound, the hydrogel formation entry in series [2] (setting [3]) is recorded as “formed a hydrogel”.

With “GDCA-hnRNPA1 NLS: glycodeoxycholic acid (GDCA) conjugated to hnRNPA1 M9 NLS peptide (SEQ ID NO: 4) (SNFGPMKGGNFGGRSSGPY; also: glycodeoxycholic acid (GDCA) conjugate, site not given here)”, in series [2] (setting [3]), the hydrogel formation result is given as “formed a hydrogel”.

Take “GUDCA-hnRNPA1 NLS: glycoursodeoxycholic acid (GUDCA) conjugated to hnRNPA1 M9 NLS peptide (SEQ ID NO: 4) (SNFGPMKGGNFGGRSSGPY; also: glycoursodeoxycholic acid (GUDCA) conjugate, site not given here)”: the “incubation time after which a hydrogel formed” value in series [2] (20 mg/ml in pure water, room temperature) fell in the range of 1 to 3 h. The hydrogel formation entry in series [2] (setting [3]) is reported as “formed a hydrogel”. On to “LCA-hnRNPA1 NLS: lithocholic acid (LCA) conjugated to hnRNPA1 M9 NLS peptide (SEQ ID NO: 4) (SNFGPMKGGNFGGRSSGPY; also: lithocholic acid (LCA) conjugate, site not given here)”, for which, in series [2] (monomers, 25 mg/mL in PBS 1X (pH 7.4), room temperature), the “hydrogel formation following resuspension” value is “a hydrogel spontaneously formed within a matter of seconds”.
